# Earlier results as cited in PMC9200754.
# pKd: −log10 of the molar value.
# What was measured:
# [1] = molecular target: p65 (Homo sapiens) (UniProt Q04206); details: cited from earlier work
# [2] = molecular target: p50 (Homo sapiens) (UniProt P19838); details: cited from earlier work
# UniProt Q04206, sequence (Q04206 whole entry): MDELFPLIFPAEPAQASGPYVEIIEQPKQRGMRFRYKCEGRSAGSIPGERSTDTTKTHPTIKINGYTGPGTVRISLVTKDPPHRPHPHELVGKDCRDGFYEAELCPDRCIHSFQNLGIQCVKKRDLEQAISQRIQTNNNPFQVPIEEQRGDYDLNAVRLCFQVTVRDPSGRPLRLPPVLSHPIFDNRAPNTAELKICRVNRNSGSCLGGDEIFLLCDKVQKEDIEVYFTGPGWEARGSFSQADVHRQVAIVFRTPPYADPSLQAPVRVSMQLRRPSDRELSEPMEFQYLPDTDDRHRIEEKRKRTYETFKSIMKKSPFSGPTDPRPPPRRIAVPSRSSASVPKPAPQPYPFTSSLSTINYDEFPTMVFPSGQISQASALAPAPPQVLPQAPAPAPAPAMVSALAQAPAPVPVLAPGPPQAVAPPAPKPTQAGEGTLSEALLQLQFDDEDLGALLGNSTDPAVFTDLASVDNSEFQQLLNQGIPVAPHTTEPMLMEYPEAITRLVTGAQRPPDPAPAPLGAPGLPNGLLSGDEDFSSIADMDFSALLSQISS
substance,measurement,setting,value
p50 (from UniProt P19838),pKd,[1],8.00
same,pKd,[2],7.52
